T1: 小鼠重组RCN3蛋白 (mouse, UniProt Q8BH97 21-328, limits assumed)
T1 construct: Recombinant mouse RCN3 used as coating antigen and in the Western blot; GST and BSA were run as control antigens; also called 小鼠RCN3蛋白; 重组小鼠RCN3蛋白
T1 sequence (looked up): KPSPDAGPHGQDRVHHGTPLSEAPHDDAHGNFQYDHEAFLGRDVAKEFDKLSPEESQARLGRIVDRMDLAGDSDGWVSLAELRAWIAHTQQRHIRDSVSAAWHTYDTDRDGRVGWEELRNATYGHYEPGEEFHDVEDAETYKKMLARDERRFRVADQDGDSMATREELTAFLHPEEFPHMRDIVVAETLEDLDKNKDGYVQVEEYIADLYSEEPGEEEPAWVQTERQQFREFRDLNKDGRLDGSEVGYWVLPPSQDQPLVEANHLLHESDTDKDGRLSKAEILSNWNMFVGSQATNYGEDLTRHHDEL


Columns and labels:
小鼠重组RCN3蛋白 [1] = target: T1, 小鼠重组RCN3蛋白; assay: phage ELISA, plate coated with 3 μg/mL mouse RCN3 (GST and BSA as controls), HRP anti-M13
小鼠重组RCN3蛋白 [2] = target: T1, 小鼠重组RCN3蛋白; assay: ELISA, plate coated with 3 μg/mL mouse RCN3 (GST and BSA as controls), ScFv-Fc as first antibody, HRP goat anti-human IgG

Binder	binding result (小鼠重组RCN3蛋白 [1])	binding result (小鼠重组RCN3蛋白 [2])
全人源抗小鼠RCN3蛋白单链ScFv抗体的噬菌体克隆 (scFv, The scFv stood on the surface of M13 phage in the assay; also called 单克隆噬菌体) scFv: ELQMTQSPSSLSASVGDRVTITCQASQDITYHLNWYQQKPGKAPKLLIYDASNLVTGVPSRFSGSGSGTDFTVTISSLQPEDFATYYCQHYYNRPPTFGQGTRLEIKGGSSRSSSSGGGGSGGGGQVQLVQSGGGVVQPGRSLRLSCAASGFTFSSYGMHWVRQAPGKGLEWVAVISYDGSNKYYADSVKGRFTISRDNSKNTLYLQMNSLRAEDTAVYYCARDLGTHAFDIWGQGTMVTVSS	binds	–
全人源抗小鼠RCN3带有Fc标签的单链ScFv抗体 (Fc fusion, also called ScFv-Fc抗体; 抗小鼠RCN3蛋白ScFv-Fc抗体; not shown: Fc tag from the eukaryotic expression vector pFUSERTL1) scFv: ELQMTQSPSSLSASVGDRVTITCQASQDITYHLNWYQQKPGKAPKLLIYDASNLVTGVPSRFSGSGSGTDFTVTISSLQPEDFATYYCQHYYNRPPTFGQGTRLEIKGGSSRSSSSGGGGSGGGGQVQLVQSGGGVVQPGRSLRLSCAASGFTFSSYGMHWVRQAPGKGLEWVAVISYDGSNKYYADSVKGRFTISRDNSKNTLYLQMNSLRAEDTAVYYCARDLGTHAFDIWGQGTMVTVSS	–	binds

Reference: patent CN106749656A (UNIV ZHENGZHOU NORMAL, dated 2017)
